Target: biotinylated preS1 peptide, residues 69–108 (hepatitis B virus (residues numbered …, C-terminal biotin))
Assay: BLI

B1: sEGF4–6-hFc (soluble fusion protein comprising SCARF2's EGF4–6 domains, with an N-terminal HA tag an (Fc fusion)
chain: GSYPYDVPDYAGSSACYCSATSRCDPQTGACLCHAGWWGRSCNNQCACNSSPCEQQSGRCQCRERTFGARCDRYCQCFRGRCHPVDGTCACEPGYRGKYCR
B1 was tested. Which koff did it give?
The koff was 0.000289 s⁻¹.

— paper doi:10.1101/2025.06.13.659407 (2025)
